The text below walks through data of patent publication US20210206856A1 (PANDION OPERATIONS, published 2021).

The target of experiment [1] is T1, recombinant mouse MAdCAM-1 (mouse, UniProt Q61826 22-365, limits assumed).
T1 construct: also called mMAdCAM-1; mouse MAdCAM-Fc
T1 sequence (looked up): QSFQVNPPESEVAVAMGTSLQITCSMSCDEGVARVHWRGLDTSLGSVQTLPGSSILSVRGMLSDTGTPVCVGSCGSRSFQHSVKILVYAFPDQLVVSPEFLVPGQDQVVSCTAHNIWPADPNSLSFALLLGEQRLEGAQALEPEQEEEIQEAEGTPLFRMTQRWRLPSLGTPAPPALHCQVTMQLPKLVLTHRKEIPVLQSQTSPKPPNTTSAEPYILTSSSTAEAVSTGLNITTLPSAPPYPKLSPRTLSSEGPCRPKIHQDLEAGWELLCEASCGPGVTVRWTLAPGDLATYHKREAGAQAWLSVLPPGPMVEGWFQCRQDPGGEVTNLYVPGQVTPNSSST
In words: Octet.

Experiment [2] deals with T2, mouse MAdCAM expressed on cells (mouse, UniProt Q61826 22-405).
T2 construct: whole, on cells
T2 sequence (looked up): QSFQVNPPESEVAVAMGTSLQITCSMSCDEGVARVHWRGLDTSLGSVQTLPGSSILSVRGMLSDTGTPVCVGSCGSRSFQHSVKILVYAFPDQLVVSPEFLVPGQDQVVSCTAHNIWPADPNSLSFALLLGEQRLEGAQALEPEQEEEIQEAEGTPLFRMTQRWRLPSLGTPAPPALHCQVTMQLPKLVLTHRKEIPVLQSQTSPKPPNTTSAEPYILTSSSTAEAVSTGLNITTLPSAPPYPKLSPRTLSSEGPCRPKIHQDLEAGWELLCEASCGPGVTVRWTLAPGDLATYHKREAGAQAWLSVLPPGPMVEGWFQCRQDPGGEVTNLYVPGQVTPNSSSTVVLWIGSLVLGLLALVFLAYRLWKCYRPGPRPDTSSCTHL
Description: cell binding.

Experiment [3] deals with T3, human MAdCAM expressed on cells (human, UniProt Q13477 19-382).
T3 construct: whole, on cells; also called MADCAM1
T3 sequence (looked up): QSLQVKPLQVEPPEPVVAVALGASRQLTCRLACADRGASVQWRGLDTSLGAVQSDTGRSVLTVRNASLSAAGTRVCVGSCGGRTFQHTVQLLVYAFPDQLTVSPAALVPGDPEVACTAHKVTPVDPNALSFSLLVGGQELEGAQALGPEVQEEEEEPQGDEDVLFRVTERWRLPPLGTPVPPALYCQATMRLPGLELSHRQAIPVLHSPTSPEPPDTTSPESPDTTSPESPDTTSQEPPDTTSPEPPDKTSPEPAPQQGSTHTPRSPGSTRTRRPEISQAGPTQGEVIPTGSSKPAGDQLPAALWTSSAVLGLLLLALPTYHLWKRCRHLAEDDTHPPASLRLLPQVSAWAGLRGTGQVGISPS
Description: cell binding.

B1: MAdCAM Antibody Table 1 Clone 6 (scFv)
scFv: EVQLLESGGGLVQPGGSLRLSCAASGFTFNNYAFHWVRQAPGKGLEWVSRINSYGTSTTYADSVKGRFTISRDNSKNTLYLQMNSLRAEDTAVYYCAREGPVAGYWYFDLWGQGTLVTVSSGGGGSGGGGSGGGGSGGGGSDIQMTQSPSSLSASVGDRVTITCRASQIIGTNLAWYQQKPGKAPKLLIYGASSLQSGVPSRFSGSGSGTDFTLTISSLQPEDFATYYCQQSYRLPFTFGQGTKVEIK
notes: also called Antibody Clone 6
Turning to B1, the binding result in experiment [1] is on record as “no binding”; in experiment [2], “no binding”; in experiment [3], “binds”.

B2: MAdCAM Antibody Table 1 Clone 23 (scFv)
scFv: EVQLLESGGGLVQPGGSLRLSCAASGFTFSSYAMHWVRQAPGKGLEWVSGISGSGGSAYYADSVKGRFTISRDNSKNTLYLQMNSLRAEDTAVYYCATSQAPVDYYYYGMDVWGQGTTVTVSSGGGGSGGGGSGGGGSGGGGSDIQMTQSPSSLSASVGDRVTITCRASQSISSWLAWYQQKPGKAPKLLIYAASNLQRGVPSRFSGSGSGTDFTLTISSLQPEDFATYYCQQSYSIPITFGQGTKVEIK
For the molecule B2, the binding result in experiment [1] is given as “no binding”; in experiment [2], “no binding”; in experiment [3] it was “binds”.
